Experimental data reported in publication PMC3580866 (Biochemistry, 2013).
Where a chain is given by its changes, count along the chain named. Names may count otherwise.

How the values were obtained:
SEC = biological target: the molecule itself; assay: SEC
[1] = biological target: full length human SLBP, unphosphorylated, untagged, co-expressed with hSLIP1 in E. coli (human, UniProt Q14493 1-270); assay: AUC
AUC = biological target: the molecule itself; assay: AUC

B1: MIF4Gdb from Danio rerio (zebrafish orthologue of SLIP1) (natural protein, Danio rerio (zebrafish))
chain: ENSSKEDYKIQSFDLETQKLLKTALKDPGSVDLEKVSSVIVDQSLKDQVFSREAGRICYTIVQAEAKQTNGSVFRRNLLNRLQQEFKAREETRKRSTQEWVCLVSFICNIFDYLKVNNMPMVALVHPVYDCLFRLAQSDALKNEEEVDCLVLQLHRIGDQLEKMNVQLMDELFNLLRDGFLLQEDLSSMGRLLLLEILEFRAGGWKLSDTAQKYYYSEVTD
SEC
  stoichiometry N: 2

B2: human SLIP1, wild type, (His)6-tagged, co-expressed with hSLBP from pRSF-Duet (natural protein, UniProt A9UHW6 1-222, looked up)
chain: MGEPSREEYKIQSFDAETQQLLKTALKDPGAVDLEKVANVIVDHSLQDCVFSKEAGRMCYAIIQAESKQAGQSVFRRGLLNRLQQEYQAREQLRARSLQGWVCYVTFICNIFDYLRVNNMPMMALVNPVYDCLFRLAQPDSLSKEEEVDCLVLQLHRVGEQLEKMNGQRMDELFVLIRDGFLLPTGLSSLAQLLLLEIIEFRAAGWKTTPAAHKYYYSEVSD
[1]
  Kd: < 0.9 nM

B3: R202A human SLIP1, (His)6-tagged, expressed alone from pET28a (natural protein, UniProt A9UHW6 1-222, looked up)
chain: B2 chain with R202A
AUC
  stoichiometry N: 2
